Consider two molecules from patent publication US20240417762A1, “MICROORGANISMS AND METHODS FOR PRODUCING REUTERIN” (Wisconsin Alumni Research Foundation, priority 2023, published 2024).

This assay has as its system reuterin production. As to the kind of experiment: Determination of reuterin formation during growth of L. reuteri ATCC PTA-6475 and its variants. In kind it is cell-based, Limosilactobacillus reuteri. The method, then:
FIGS. 5A-5E. Reuterin production of L. reuteri ATCC PTA-6475 and its variants during the growth. Overnight cells were inoculated to reach an initial OD 0.1 in mMRS supplemented with 100 mM glucose and 40 mM glycerol. Supernatant was collected every hour during the growth at 37° C. and the reuterin concentrations were determined. The number of cells of each strain at each time point was normalized to an OD of 3. Data are shown as means±standard deviations for three independent experiments. Statistical significance was determined by unpaired t-test. * P<0.05; **** P<0.0001. In FIGS. 5C and 5D, “orf14” refers to orf14 from L. reuteri. In FIG. 5E, the origins of the orf14 genes (L. mucosae or L. reuteri) are indicated.
To characterize the reuterin production during growth, strains were cultured at 37° C. anacrobically in deMan-Rogosa-Sharpe medium (MRS; 288110, BD BioSciences) for 18 h, and then bacteria were sub-cultured to reach an initial OD600 of 0.1 in modified MRS (10 g peptone, 10 g beef extract, 5 g yeast extract, 2 g ammonium citrate dibasic, 2 g K2HPO4, 0.1 g MgSO4, 0.05 g MnSO4, and 1.0 g Tween 80 per liter) supplemented with 100 mM glucose. Cultures were incubated anaerobically at 37° C. Strains harboring pSIP411 or its variants were grown in mMRS supplemented with 5 μg/mL erythromycin. Where applicable, induction peptide (10 ng/ml) (MAGNSSNFIHKIKQIFTHR (SEQ ID NO:34)) was added. Samples were collected every hour up to 8 hours. Cell density was monitored using GENESYS 20 visible spectrophotometer (Thermo Scientific) and reuterin production was measured as described in Zhang et al. 2020. Briefly, cell-free supernatants (50 μL) were mixed with 37.5 μL tryptophan (Sigma-Aldrich) in a 96 well plate, followed by an addition of 150 μL 37% HCl (Thermo scientific). After incubating at 37° C. for 20 min, OD560 was measured by GloMax plate reader (Promega). Two-fold dilutions of acrolein (06-722-501, ThermoFisher) were used to generate a standard curve to quantify reuterin (Doleyres et al. 2005). […]

B1: Orf14: Limosilactobacillus reuteri Orf14 phage protein (SEQ ID NO:2), overexpressed from pSIP-orf14 (protein, listed as Lactobacillus reuteri)
chain: VIYMNKIKRLCKKYQQVIYTLFAVLVIISVVYFALHGFDSFVKWATTDVGSVADWAGSIGTILAFVAVIWQQGRQENITRAVHIEESRPRFSLTYTPKPVLKTRVLFWGNGRTAVNINEILGSRSAENYRFISIENISNNVVYDYSIILKYHSNDNARVRKDYWSSHGLFPRRSVAIVPKFMGTDKDKIGNYIYDELLVKFTTPANEVGFFISKNINNAQTDSSFGKSQYYFVRGSHVKRVTAINTDKMIDVDSSICRKLDKEFDEIIGITSLGEINENGKLS
For B1, for the setting “Orf14 overexpressed in L. reuteriΔΦ1ΔΦ2, following 5 h incubation, P<0.05”, the “increase in reuterin production compared to that in the wildtype strain” value came out at 3 fold. Where the note is “growth at 37° C. in mMRS with 100 mM glucose and 40 mM glycerol, supernatant, normalized to OD 3”, the reuterin production entry was “rescued reuterin production”.

B2: Orf14-mucosae: Limosilactobacillus mucosae Orf14 protein (SEQ ID NO:4), natural homolog, codon optimized for expression in L. reuteri (protein, listed as Lactobacillus mucosae)
chain: MKRVKELCKKYQQVIYTLLAVVAIVGVVYFALHGFNSFIKWATTDVGSVADWAGSIGTILAFIAVIWQQGRQENITRAVHVEESRPRFSVTYTPKPQAKTKMLFWGNNRTLSQINTMLNNRNGENYRFINIENISNNVVYDYSIILKYHFYDNSLVRKDYWSSHGLFPRRSIIIVPKFLGTGKDKIGNYIYDELLIKFTTPANEIGFFKMTNVNGNRTDSSFGDSQYYFVRGSHIKRVTAINTDEMIKADSPLCRKLDREFSETTGGTNFGAIGEDGKAY
As for B2, the “higher reuterin production compared to the overexpression of native Orf14” value (overexpression in L. reuteri (FIG. 5E)) was 2.9 fold.
